The target of the test is human Na+-taurocholate co-transporting polypeptide (NTCP), detergent-purified, tags cleaved (Homo sapiens, UniProt Q14973). The test is described as follows: cryo-EM structure.

The results in this text go back to paper doi:10.1101/2024.01.22.576510 (bioRxiv, 2024).

human Na+-taurocholate co-transporting polypeptide (NTCP), detergent-purified, tags cleaved, sequence (Q14973 whole entry): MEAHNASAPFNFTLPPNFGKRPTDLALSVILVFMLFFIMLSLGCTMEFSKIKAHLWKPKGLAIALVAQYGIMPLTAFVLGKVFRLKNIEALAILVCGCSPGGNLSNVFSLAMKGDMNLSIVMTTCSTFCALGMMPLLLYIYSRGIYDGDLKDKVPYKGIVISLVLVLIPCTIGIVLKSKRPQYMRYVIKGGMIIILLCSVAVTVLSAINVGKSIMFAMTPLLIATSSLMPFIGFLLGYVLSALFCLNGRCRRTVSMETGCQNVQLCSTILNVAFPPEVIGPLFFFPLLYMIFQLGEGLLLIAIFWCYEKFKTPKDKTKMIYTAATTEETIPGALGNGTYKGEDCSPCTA

B1: Fab3 (Fab, V domains shown)
VH: EVQLVESGGGLVQPGGSLRLSCAASGFNVSSSYIHWVRQAPGKGLEWVASISPYYSYTSYADSVKGRFTISADTSKNTAYLQMNSLRAEDTAVYYCARYQYDYYYSYYAGLDYWGQGTLVTVSS
VL: DIQMTQSPSSLSASVGDRVTITCRASQSVSSAVAWYQQKPGKAPKLLIYSASSLYSGVPSRFSGSRSGTDFTLTISSLQPEDFATYYCQQYRYSLITFGQGTKVEIK
Take B1: the binding result is on record as “binds”.
